Read-outs that look alike come from different tables or passages of the source. Each block holds one binder with its values, some of them ahead of it.
How the values were obtained:
[1] = target: HLA-A0201 molecule, which is a product of the HLA-A*0201 gene (human); assay: flow cytometry; reassociation of peptide, added β2m and HLA-A0201 on acid-stripped JY cells, stained with mAb BB7.2; details: remark: other sources report otherwise
[2] = target: HLA-A0206 molecule, which is a product of the HLA-A*0206 gene (human); assay: flow cytometry; peptide stabilisation of empty HLA-A0206 on RA2.6 cells (TAP-deficient), stained with mAb 17A10 or 17A12
[3] = target: HLA-A2402 molecule, which is a product of the HLA-A*2402 gene (human); assay: flow cytometry; reassociation of peptide, added β2m and HLA-A2402 on acid-stripped C1R-A24 cells, stained with mAb 17A12
[4] = remark: other sources report otherwise

B1: SEQ ID NO 17 (peptide)
peptide: MLLRLSEPA
-log Kd [1]: 6.2 -log Kd

B4: SEQ ID NO 19 (peptide)
peptide: GVLVHPQWV
modifications: not checked
-log Kd [2]: 6.28 -log Kd

B5: SEQ ID NO 4 (peptide)
peptide: DLPTQEPAL
modifications: not checked
-log Kd [3, 4]: 5.23 -log Kd

B6: SEQ ID NO 22 (peptide)
peptide: LVASRGRAV
modifications: not checked
-log Kd [2]: 5.25 -log Kd

The next lines start with the values.

-log Kd [2]: 5.26 -log Kd
B2: SEQ ID NO 27 (peptide)
peptide: DLPTQEPAL
modifications: not checked

-log Kd [3]: 7.29 -log Kd
B3: SEQ ID NO 2 (peptide)
peptide: WVPVVFLTL
modifications: not checked

-log Kd [2]: 6.74 -log Kd
B7: SEQ ID NO 24 (peptide)
peptide: WVPVVFLTL
modifications: not checked

-log Kd [3, 4]: 4.63 -log Kd
B8: SEQ ID NO 12 (peptide)
peptide: WVLTAAHCI

— patent publication US20080306243A1, “Hla-Binding Peptide, and Dna Fragment and Recombinant Vector Coding for Said Hla-Binding Peptide” (NEC CORPORATION, priority 2005, published 2008)
